Experimental data reported in publication PMC5809404, “Luminescence resonance energy transfer between genetically encoded donor and acceptor for protein-protein interaction studies in the molecular chaperone HSP70/HSP90 complexes” (Scientific Reports, 2018).

How the values were obtained:
Conditions in all cases: both partners purified
[1] = target: T1, LBT-TPR2A K229A (TPR2A domain of human HOP, point mutant K229A) (human, UniProt P31948 225-337, K229A); experiment: LRET (luminescence resonance energy transfer); equimolar mixture in solution of the LBT-tagged protein loaded with Tb3+ and the EGFP or TagRFP fusion protein (5 µM, or 25 µM for TagRFP-C70); 96-well black plates; excitation 280 nm, 100 µs delay, emission spectrum 450-600 nm
T1 construct: TPR2A domain of HOP (STIP1), human, aa 225-337, with K229A; Loaded with equimolar Tb3+ in the assay; also called TPR2A mutant K229A; source: E. coli Rosetta (DE3) pLysS, purified (Ni-NTA)
T1 sequence (P31948 225-337 K229A): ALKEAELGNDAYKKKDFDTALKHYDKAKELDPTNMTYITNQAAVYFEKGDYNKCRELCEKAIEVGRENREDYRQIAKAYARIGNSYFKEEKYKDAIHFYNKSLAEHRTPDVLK

[2] = target: T2, LBT-TPR2A (TPR2A domain of human HOP, wild type, with an N-terminal lanthanide binding tag) (human, UniProt P31948 225-337); experiment: as above
T2 construct: TPR2A domain of HOP (STIP1), human, aa 225-337; Cloned into the XhoI site of pST96/LBT-MCS; Loaded with equimolar Tb3+ in the assay; also called LBT-TPR2A WT; TPR2A WT; source: E. coli Rosetta (DE3) pLysS, purified (Ni-NTA)
T2 sequence (P31948 225-337): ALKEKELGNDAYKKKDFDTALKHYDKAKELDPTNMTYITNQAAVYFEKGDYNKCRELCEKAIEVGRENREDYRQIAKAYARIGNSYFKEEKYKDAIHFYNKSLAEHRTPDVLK

[3] = target: T3, LBT-TPR2A (TPR2A domain of yeast Sti1 with an N-terminal lanthanide binding tag) (yeast, UniProt P15705 252-379); experiment: LRET (luminescence resonance energy transfer); titration: 20 µM LBT-TPR2A-Tb3+ complex with increasing EGFP-C90 (0-15 µM); normalized LRET Em510 nm/Em490 nm; Scatchard plot; three independent experiments
T3 construct: TPR2A domain of Sti1, yeast, aa 252-379; Loaded with equimolar Tb3+ in the assay; also called LBT-TPR2A (Sti1); LBT-TRP2A; source: E. coli Rosetta (DE3) pLysS, purified (Ni-NTA)
T3 sequence (looked up): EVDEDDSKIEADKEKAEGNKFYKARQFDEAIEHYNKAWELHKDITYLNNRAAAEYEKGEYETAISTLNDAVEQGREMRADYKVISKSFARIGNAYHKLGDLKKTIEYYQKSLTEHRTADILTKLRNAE

binding result [1]: binds
binding result [2]: binds
Kd [3]: 4.2 µM
B1: EGFP-C90 (last 90 amino acids of human HSP90α fused to the C-terminus of EGFP) (domain or fragment)
chain: not shown
notes: HSP90α, human, the C-terminal 90 amino acids, ending with MEEVD; EGFP in the XhoI site and C90 in the BamHI site of pET15b; source: E. coli Rosetta (DE3) pLysS, purified (Ni-NTA); not shown: EGFP, N-terminal, kept
